Source: patent US20170362330A1 (University of California, published 2017)

T1: recombinant Fc fusion protein composed of the Sushi domain 1 and 2 of human CD46 (human, UniProt P15529 35-159)
T1 construct: domain: Sushi domain 1 and 2; Produced in HEK293 cells, purified by protein A; also called CD46-Fc fusion; recombinant CD46-Fc fusion protein; not shown: Fc part
T1 sequence (looked up): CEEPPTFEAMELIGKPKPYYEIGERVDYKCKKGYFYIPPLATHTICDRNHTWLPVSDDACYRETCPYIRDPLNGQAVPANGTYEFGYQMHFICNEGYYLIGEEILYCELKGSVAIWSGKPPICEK

B1: SB1HGNY (antibody, V domains shown)
VH: QVQLQQSGGGVVQPGRSLRLSCAASGFTFSSYAMHWVRQAPGKGLEWVAFIRSDGSKKYYADSVKGRFTISRDNSKNTLYLQMNSLRAEDTAVYYCARHGNYFDSWGQGTLVTVSS
VL: DIQMTQSPSFLSASVGDRVTITCRASQGISSYLAWYQQKPGKAPKLLIYAASTLQSGVPSSFSGSGSGTEFTLTISSLQPEDFATYYCQQLASYPLTFGGGTKVDIK
notes: Human scFv from phage/yeast display, converted into full human IgG1
B2: YS5F (antibody, V domains shown)
VH: QVQLVQSGGGVVQPGRSLRLACAASGFTVNNYAMHWVRQAPGKGLEWVAVISYDGNNKYYADSVKGRFTISRDNSKNTLYLQMNSLRAEDTAVYYCAKGGGYFDLWGRGTLVTVSS
VL: QSVLTQPPSVSGAPGQRVTISCTGSSSNIGAGYDVHWYQQLPGTAPKLLIYGNNNRPSGVPDRFSGSKSGTSASLAITGLQAEDEADYYCSSYTSGTWLFGGGTKLTVL
notes: as for B1
B3: YS12 (antibody, V domains shown)
VH: QVQLVESGGGVVQPGRSLRLSCAASGFTFSTYGMHWVRQAPGKGLEWLSFISYDGDEKYYADSVKGRFTISRDNSKNTLYLQMNSLRAEDTAVYWCAKASGYGMGILDYWGQGTLVTVSS
VL: SSELTQDPAVSVALGQTVRITCQGDSLRSYYVSWFQQKPGQAPVFVMYGQNNRPSGISERFSGSSSGNTASLIITGAQAEDEADYYCHSRDSSGTHLRVFGGGTKLTVL
notes: Human scFv from phage/yeast display, converted into full human IgG1; also called YS12 IgG1
B4: 3G7RY (aka 3G8) (antibody, V domains shown)
VH: EVQLVESGGGLVQPGGSLRLSCAASGFTFSDYYMSWIRQAPGKGLEWVSYISSSGSTIYYADSVKGRFTISRDNSKNTLYLQMNSLRAEDTAVYYCARDYGRIAAAGRRYWGQGTLVTVSS
VL: QSALTQPPSASATPGQRVTISCSGRTSNIGSNHVYWYQQLPGTAPKLLIYRNNQRPSGVPDRFSGSKSGTSASLAISGLRSEDEADYYCATWDDSLSGEVFGGGTKLTVL
notes: Human scFv from phage/yeast display, converted into full human IgG1; elsewhere 3G8 is 3G7RY
B5: YS1 (antibody, V domains shown)
VH: EVQLVESGGGLVQPGGSLRLSCAASGFTFSDYYMSWIRQAPGKGLEWVSYISSSGSTIYYADSVKGRFTISRDNSKNTLYLQMNSLRAEDTAVYYCARDYGRIAAAGRHYWGQGTLVTVSS
VL: SSELTQDPAVSVALGQTVRITCQGDTLSTYYANWYQQKPGQAPVLVIYGKNNRPSGIPDRFSGSSSGNTASLTITGAQAEDEADYYCHSRDISGNYLFASGTKLTVL
notes: as for B1
B6: 3G7NY (antibody, V domains shown)
VH: EVQLVESGGGLVQPGGSLRLSCAASGFTFSDYYMSWIRQAPGKGLEWVSYISSSGSTIYYADSVKGRFTISRDNSKNTLYLQMNSLRAEDTAVYYCARDYGRIAAAGRNYWGQGTLVTVSS
VL: DIVMTQSPLSLPVTPGEPASISCRSSQSLLHSNGYDYLDWYLQKPGQSPQLLIYLGSNRASGVPDRFSGSGSGTDFTLKISRVETEDVGIYYCMQGLQTPSFGQGTKLEIK
notes: as for B1
B7: YS6 (antibody, V domains shown)
VH: QVQLQESGGGVVRPGGSLRLSCAASGFTFSDYYMSWIRQAPGKGLEWVSYISSSGSTIYYADSVKGRFTISRDNSKNTLYLQMNSLRAEDTAVYYCARDYGRIAAAGRHYWGQGTLVTVSS
VL: SSELTQDPAVSVALGQTVRITCQGDSLRSYYASWYQQKPGQAPVLVIYGKNNRPSGIPDRFSGSSSGNTASLTITGAQAEDEADYYCNSRDSSGTHLEVFGGGTKVTVL
notes: as for B1
B8: 3G7HY (antibody, V domains shown)
VH: EVQLVESGGGLVQPGGSLRLSCAASGFTFSDYYMSWIRQAPGKGLEWVSYISSSGSTIYYADSVKGRFTISRDNSKNTLYLQMNSLRAEDTAVYYCARDYGRIAAAGRHYWGQGTLVTVSS
VL: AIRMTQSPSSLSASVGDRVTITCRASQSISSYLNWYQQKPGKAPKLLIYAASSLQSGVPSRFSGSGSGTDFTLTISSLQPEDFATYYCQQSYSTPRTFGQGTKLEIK
notes: as for B1
B9: 3G7 (antibody, V domains shown)
VH: QVQLQESGGGVVRPGGSLRLSCAASGFTFSDYYMSWIRQAPGKGLEWVSYISSSGSTIYYADSVKGRFTISRDNSKNTLYLQMNSLRAEDTAVYYCARDYGRIAAAGRHYWGQGTLVTVSS
VL: SSELTQDPAVSVALGQTVRITCQGDSLRSYYASWYQQKPGQAPVPVIYGKNNRPSGIPDRFSGSSSGNTASLTITGAQAEDEADYYCNSRDSSSTHRGVFGGGTKLTVL
notes: as for B1
B10: YS7 (antibody, V domains shown)
VH: QVQLVQSGGGVVQPGRSLRLSCAASGFTFSSYAMHWVRQAPGKGLEWVAVISYDGSNKYYADSVKGRFTISRDTSTNTLYLQMNSLRADDTAVYYCGRESSGSPGVWGQGTTVTVSS
VL: SYVLTQDPAVSVALGQTVRITCQGDSLRSYYASWYQQKPGQAPVLVIYGKNNRPSGIPDRFSGSSSGNTASLTITGAQAEDEADYYCNSRDSSGNQFGGGTKLTVL
notes: as for B1
B11: YS4 (antibody, V domains shown)
VH: QVQLQESGGGLVQPGGSLRLSCAASGFTFSNYAMSWVRQAPGKGLEWVSTISGSGSSTFYVDSVKGRFTISRDNSKNTLYLQMNSLRAEDTAVYYCAQGLYSSGWANWFDPRGQGTLVTVSS
VL: KIVLTQSPSSLSASVGDTVTIACRASRDIRNDLAWYQQKPGKAPKLLIYGASSLQSGVPSRFSGSGSGTEFILTISSLQPEDFATYYCHRLNSYPLTFGGGTKVDIK
notes: as for B1
B12: SB2 (antibody, V domains shown)
VH: EVQLVESGGGLVKPGGSLRLSCAASGFTFSDYYMSWIRQAPGKGLEWVSYISSSGSSIYYADSVKGRFTISRDNAKNSLYLQMNSLKAEDTAVYYCARDITDVVGVSFDYWGQGTLVTVSS
VL: DIQLTQSPSSLSASVGDRVTITCRASRSISTYLSWYQQKPGKAPKLLIYDASRLQNGVPSRFSGSGSDTDFTLTISSLQPEDFATYFCQQSYNPPWTFGQGTKLEIK
notes: as for B1
B13: YS3 (antibody, V domains shown)
VH: QVQLQESGGGLVQPGGSLRLSCAASGFTFSSYWMSWVRQAPGKGLEWVADIKQDGSEKYYVDSVKGRFTISGDNAKNSLYLQMNSLRAEDTAVYYCAKDVGSTAINYVRAYTWFDPWGQGTLVTVSS
VL: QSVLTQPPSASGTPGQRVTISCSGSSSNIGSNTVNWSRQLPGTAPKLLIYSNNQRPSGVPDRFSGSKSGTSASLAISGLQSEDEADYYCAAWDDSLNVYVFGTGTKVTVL
notes: as for B1
B14: YS9 (antibody, V domains shown)
VH: QVQLVESGGGLIQPGGSLRLSCAASGFTVSSNYMSWVRQAPGKGLEWVSVIYTDGSTYYADSVKGRFTISRDNSKNTLYLQMNSLRAEDTAIYYCARDRGTSGYDWAWFDLWGQGTLVTVSS
VL: SSELTQDPAVSVALGQTVRITCQGDSLRTYYASWYQQRPGQAPILVLYGKNNRPSGIPDRFSGSSSGNTASLTITGAQAEDEADYYCNSRDSSGNHVVFGGGTKLTVL
notes: as for B1
B15: YS10 (antibody, V domains shown)
VH: QVQLQESGGGLVQPGGSLRLSCAASGFTFSSYAMSWVRQAPGKGLEWVSAISGSGGSTYYADSVKGRFTISRDNSKNTLYMQMNSLRAEDTAVYYCAKDRYYYGSGKDAFDIWGRGTMVTVSS
VL: QSVLTQPASVSGSPGQSITISCTGTGSDVGSYNYVSWYQQNPGKAPKLMIYEVSNRPSGVSNRFSGSKSGNTASLTISGLQAEDEADYYCSSYTTSSTLVFGGGTKVTVL
notes: as for B1
B16: YS8 (antibody, V domains shown)
VH: QVQLQESGGGVVQPGRSLRLSCAASGFTFSSYGMHWVRQAPGKGLEWVAVISYDGSNKYYADSVKGRFTISRDNSKNTLYLQMNSLRAEDTAVYYCAKVMGLAAAGLDAFDIWGQGTTVTVSS
VL: NFMLTQPASLSGSPGQSITISCTGTSSDVGGYNYVSWYQQHPGYAPKLMIYDVSNRPSGVSNRFSGSKSGNTASLTISGLQAEDEADYYCSSYTSSSTPWVFGGGTKLTVL
notes: as for B1
B17: 2C8 (antibody, V domains shown)
VH: EVQLVESGGGVVQPGRSLRLSCAASGFTFSSYGMHWVRQAPGKGLEWVAVISYDGSNKYYADSVKGRFTISRDNSKNTLYLQMNSLRAEDTAEYYCAKVMGLAAAGLDAFDIWGQGTLVTVSS
VL: QSALTQPASVSGSPGQSITISCTGTSSDVGGYNYVSWYQQHPGKAPKLMIYDVSNRPSGVSNRFSGSKSGNTASLTISGLQAEDEAYYYCSSYTSSSDPWVFGGGTQLTVL
notes: as for B1
B18: YS11 (antibody, V domains shown)
VH: QVQLVESGGGLVQPGGSLGLSCAASGFTFSNYWMSWVRQAPGKGLEWVANVRQDGGQKYYVDSVKGRFTISRDNAKNSLYLQMNSLRTEDTAVYFCVSQRNSGEHDYWGQGTLVTVSS
VL: SELTQDPAVSVALGQTVRITCQGDSLRSYYASWYQQKPGQAPVLVIYGENSRPSGIPDRFSGSSSGNTASLTITGAQAEDEADYYCNSWDSSGNHVVFGGGTKLTVL
notes: as for B1
B19: UA8kappa (antibody, V domains shown)
VH: EVQLVESGGGVVQPGRSLRLSCAASGFTFSSFGMHWVRRAPGKGLEWVAVISYDGSNQYYADSVKGRFTISRDNSKNTLYLQMNSLRAEDTAVYYCGSRPGGGYASGSTVAYWGQGTLVTVSS
VL: NIQMTQSPSSLSASVGDRVTITCRAGQPISTYVNWYQHKPGKAPKLLIYGASNLQSGVPSRFSGGGSATDFTLTISSLQPEDFATYYCQQSYSSLLTFGDGTKVEIK
notes: Human scFv from phage/yeast display, converted into full human IgG1; also called UASkappa

What follows are binders tested against T1, recombinant Fc fusion protein composed … (assay: phage and yeast display selection and FACS screening with recombinant CD46-Fc fusion).
Description: To identify novel anti-human CD46 antibodies, a recombinant Fc fusion protein composed of the Sushi domain 1 and 2 of human CD46 was created. As complement elements bind predominantly to domain 3 and 4, the choice of domain 1 and 2 minimize selection of antibodies that could potently interfere with normal complement function. This CD46-Fc fusion was produced and purified from transfected HEK293 cells by protein A affinity chromatography. For human antibody selection, a 5×10⁹ member phagemid display library was created using cDNAs pooled from peripheral blood mononuclear cells of 426 healthy human donors, and the library was selected the recombinant CD46-Fc fusion protein. Following three rounds of selection, binding phagemid were screened by FACS and sequenced. In parallel, an alternatively strategy was employed that involve first selecting the library on live tumor cells followed by transferring the output from round 1 phagemid selection into a yeast surface display vector, and then FACS-based selection using low concentration ligands to enrich high affinity binders to the recombinant CD46-Fc fusion protein. The resulting antibodies bind with high affinity to both live tumor cells and the recombinant human CD46 protein.

Question: Does B1 bind?
Answer: binds

Question: Does B2 bind?
Answer: binds

Question: Does B3 bind?
Answer: binds

Question: Does B4 bind?
Answer: binds

Question: Does B5 bind?
Answer: binds

Question: Does B6 bind?
Answer: binds

Question: Does B7 bind?
Answer: binds

Question: Does B8 bind?
Answer: binds

Question: Does B9 bind?
Answer: binds

Question: Does B10 bind?
Answer: binds

Question: Does B11 bind?
Answer: binds

Question: Does B12 bind?
Answer: binds

Question: Does B13 bind?
Answer: binds

Question: Does B14 bind?
Answer: binds

Question: Does B15 bind?
Answer: binds

Question: Does B16 bind?
Answer: binds

Question: Does B17 bind?
Answer: binds

Question: Does B18 bind?
Answer: binds

Question: Does B19 bind?
Answer: binds
